Test results published in patent US20250152722A1, “DRUG CONJUGATE OF GLUCOCORTICOID” (SHANGHAI SHENGDI PHARMACEUTICAL CO., LTD., priority 2022, published 2025).

T1: human IL-4Rα protein (Homo sapiens, UniProt P24394)
T1 construct: purchased SinoBiological 10402-H08H-B
T1 sequence (P24394 26-232 limits assumed): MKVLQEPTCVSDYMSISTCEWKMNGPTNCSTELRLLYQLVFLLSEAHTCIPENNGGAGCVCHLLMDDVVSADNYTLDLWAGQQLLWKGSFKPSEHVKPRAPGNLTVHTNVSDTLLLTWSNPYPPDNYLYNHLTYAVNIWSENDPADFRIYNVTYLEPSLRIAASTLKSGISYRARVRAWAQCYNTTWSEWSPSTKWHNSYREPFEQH

T2: human IL-4Rα expressed on cells (human, UniProt P24394 26-825)
T2 construct: whole, on cells; also called IL-4Rα on TF-1 cells; cells expressing human IL-4Rα
T2 sequence (looked up): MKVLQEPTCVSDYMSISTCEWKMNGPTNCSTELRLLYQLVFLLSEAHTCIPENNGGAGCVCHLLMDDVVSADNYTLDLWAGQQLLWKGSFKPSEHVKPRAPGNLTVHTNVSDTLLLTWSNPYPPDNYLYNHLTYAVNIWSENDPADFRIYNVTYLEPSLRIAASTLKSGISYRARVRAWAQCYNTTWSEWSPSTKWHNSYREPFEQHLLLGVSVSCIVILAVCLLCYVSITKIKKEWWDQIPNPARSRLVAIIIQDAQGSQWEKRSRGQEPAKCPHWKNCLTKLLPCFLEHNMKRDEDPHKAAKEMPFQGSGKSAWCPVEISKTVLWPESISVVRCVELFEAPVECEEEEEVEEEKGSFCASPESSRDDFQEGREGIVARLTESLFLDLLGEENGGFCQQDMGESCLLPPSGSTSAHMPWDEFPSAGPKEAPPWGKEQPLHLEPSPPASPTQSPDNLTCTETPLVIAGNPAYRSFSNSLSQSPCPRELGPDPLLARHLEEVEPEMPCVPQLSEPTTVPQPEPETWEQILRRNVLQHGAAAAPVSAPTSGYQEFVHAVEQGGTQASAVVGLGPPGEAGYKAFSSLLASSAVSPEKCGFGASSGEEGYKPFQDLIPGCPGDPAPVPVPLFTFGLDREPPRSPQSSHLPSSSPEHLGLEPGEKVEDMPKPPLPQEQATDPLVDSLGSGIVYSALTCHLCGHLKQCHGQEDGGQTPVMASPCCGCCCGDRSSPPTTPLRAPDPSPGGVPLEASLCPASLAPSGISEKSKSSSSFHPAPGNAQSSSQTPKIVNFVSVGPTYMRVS

T3: Biotin-labeled human IL-4Rα protein (SinoBiological, CAT #10402-H08H-B) (human, UniProt P24394 26-232, Biotin-labeled (sites not given))
T3 construct: Bought reagent, captured on an SA sensor chip; also called hIL-4Rα; human IL-4Rα antigen protein
T3 sequence (looked up): T1 sequence (P24394 26-232 limits assumed)

B1: 25G7-Fab (Fab, V domains shown)
VH: EVQLVESGGGLVQPGGSLRLSCAASGFTFSDYGMHWVRQAPGKGLEWVAFISSGSSIIYYADIVKGRSTISRDNAKNTLYLQMNSLRAEDTAVYYCTRGNKRGFFDYWGQGTLVTVSS
VL: EIVLTQSPATLSLSPGERATLSCRASSSVPYMYWYQQKPGQAPRLLIYLTSNLASGIPARFSGSGSGTDFTLTISSLEPEDFAVYYCQQWRAYPPMLTFGGGTKVEIKR
notes: Heavy chain is VH-CH1 (hu25G7-24-IgG4 VH-CH1), light chain is hu25G7-A LC; also called naked antibody 25G7-Fab; antibody 25G7-Fab
B2: hu25G7 (antibody, human IgG4 S228P, kappa, V domains shown)
VH: B1 VH
VL: B1 VL
notes: Full-length humanized antibody
B3: antibody-drug conjugate ADC-2 (other)
heavy: EVQLVESGGGLVQPGGSLRLSCAASGFTFSDYGMHWVRQAPGKGLEWVAFISSGSSIIYYADIVKGRSTISRDNAKNTLYLQMNSLRAEDTAVYYCTRGNKRGFFDYWGQGTLVTVSSASTKGPSVFPLAPCSRSTSESTAALGCLVKDYFPEPVTVSWNSGALTSGVHTFPAVLQSSGLYSLSSVVTVPSSSLGTKTYTCNVDHKPSNTKVDKRV
light: EIVLTQSPATLSLSPGERATLSCRASSSVPYMYWYQQKPGQAPRLLIYLTSNLASGIPARFSGSGSGTDFTLTISSLEPEDFAVYYCQQWRAYPPMLTFGGGTKVEIKRTVAAPSVFIFPPSDEQLKSGTASVVCLLNNFYPREAKVQWKVDNALQSGNSQESVTEQDSKDSTYSLSSTLTLSKADYEKHKVYACEVTHQGLSSPVTKSFNRGEC
modifications: budesonide linker-drug (Compound 2) coupled after TCEP reduction of 25G7-Fab; positions and drug loading not given; budesonide linker-drug (Compound 2, maleimide-(PEG)4-CH2CH2C(O)-Gly-Gly-Phe-Gly-NHCH2-O-budesonide) coupled after TCEP reduction of 25G7-Fab; positions and drug loading not given

Experiments:
human IL-4Rα protein = target: T1, human IL-4Rα protein; experiment: SPR affinity for human IL-4Rα antigen protein (Biacore 8K); assay type: binding; settings: captured hIL-4Rα
Protocol: An SA sensor chip (Cytiva) was placed in Biacore 8K (Cytiva), and Biotin-labeled human IL-4Rα protein (SinoBiological, CAT #10402-H08H-B) was captured on the SA sensor chip. HBS-EP+buffer solution (10 mM HEPES, 150 mM NaCl, 3 mM EDTA, 0.05% surfactant P20) was used as the mobile phase. Each test protein was serially diluted 2-fold with HBS-EP+buffer solution and then injected as an analyte. […] Analysis was performed using Biacore 8K evaluation software (Cytiva), and data on the affinities of the test proteins were obtained.

[1] = Pharmacokinetic testing on mouse model after intratracheal nebulization; assay type: in vivo; settings: after ADC-2 100 μg i.t., mice
Protocol: C57BL6/J mice, 8 weeks old, male, Cyagen (Suzhou) Biosciences Co., Ltd.
Mice were given medication via intratracheal nebulization (i.t.). At different time points post-administration, 300-400 μL of blood was collected from a mandibular blood vessel, left to stand for 2 h, and then centrifuged at 7500 rpm and 4° C. for 10 min, and the serum was collected. Following the blood collection, the mice were anesthetized and immobilized, the neck muscles of the mice were bluntly isolated to expose the trachea, and an incision was horizontally made in the trachea. A lavage syringe needle was slowly inserted, the normal saline pre-loaded, pre-cooled at 4° C., was slowly injected into the lung tissue for lavage, and the bronchoalveolar lavage fluid (BALF) was collected. Lavage was performed 3 times, with 300 μL of normal saline used for each of the first two lavages and 400 μL for the third. The collected bronchoalveolar lavage fluid was centrifuged at 1000 rpm and 4° C. for 10 min, and the supernatant was collected. After the mice were euthanized, their thoracic cavities were opened, and the complete lung tissues were isolated and collected. The tissues were rinsed with PBS to remove blood stains on the surfaces, and the surface PBS was dried off with paper towels before weighing the lung tissues. […] The protein concentrations in the homogenates were measured (Pierce, 23227). […]

[2] = target: T2, human IL-4Rα expressed on cells; experiment: flow cytometry on TF-1 cells, anti-hFab-FITC secondary antibody
Protocol: (§1) TF-1 and Karpas299 cells in the logarithmic growth phase were harvested and counted, and the cell density was adjusted. The cells were inoculated onto a 96-well round-bottom plate at 1×10⁵ cells/well. […] After the antibodies were washed off with FACS buffer (PBS containing 2% FBS), a fluorescently labeled secondary antibody was added for staining. […] The cells were incubated with the secondary antibodies at 4° C. for 30 min, then washed with FACS buffer twice, and assayed on a flow cytometer (BD, FACS Celesta), and the results were analyzed using FlowJo (FlowJo, LLC) software.

[3] = target: T2, human IL-4Rα expressed on cells; experiment: flow cytometry, whole-cell binding to Karpas 299 cells expressing IL-4Rα; FITC anti-human IgG (Fab-specific) secondary antibody
Protocol: as §1

[4] = target: T3, Biotin-labeled human IL-4Rα protein …; experiment: SPR, Biacore 8K, biotinylated hIL-4Rα captured on SA chip, test protein as analyte
Protocol: HBS-EP+buffer solution (10 mM HEPES, 150 mM NaCl, 3 mM EDTA, 0.05% surfactant P20) was used as the mobile phase. Each test protein was serially diluted 2-fold with HBS-EP+buffer solution and then injected as an analyte. The flow rate was set to 30 μL/min. […] Analysis was performed using Biacore 8K evaluation software (Cytiva), and data on the affinities of the test proteins were obtained.

[5] = target: T2, human IL-4Rα expressed on cells; experiment: cell-based or functional assay

| Molecule | EC50 [2] [nM] | EC50 (read off the curve) [3] [nM] | IC50 value (nM) for blocking of IL-4 signaling pathway (HEK-Blue IL-4/IL-13 STAT6-SEAP reporter cells, recombinant human IL-4) [5] [nM] | IC50 value (nM) for blocking of IL-13 signaling pathway (HEK-Blue IL-4/IL-13 STAT6-SEAP reporter cells, recombinant human IL-13) [5] [nM] | other results |
| --- | --- | --- | --- | --- | --- |
| AZD1402-TAG: protein sequence from SEQ ID NO: 1 in WO2020200960A1 with a His tag fused at the C-terminus (SEQ ID NO: 52) |  |  |  |  | Koff (human IL-4Rα protein): 0.000102 s⁻¹; Kon (human IL-4Rα protein): 4.77e+06 M⁻¹ s⁻¹ |
| CCCC1O[C@@H]2C[C@H]3[C@@H]4CCC5=CC(=O)C=C[C@]5(C)[C@H]4[C@@H](O)C[C@]3(C)[C@]2(C(=O)CO)O1 (stereo partly drawn) [Free budesonide, budesonide] |  |  |  |  | exposure of budesonide in serum, BALF and lung tissue (in words) [1]: low in all these tissues |
| B1 | 0.243 | ~0.2 | 0.61 | 14.6 | Kd [4]: 0.0439 nM; koff [4]: 0.000206 s⁻¹; kon [4]: 4.69e+06 M⁻¹ s⁻¹ |
| B2 | 0.247 | ~0.1 |  |  |  |
| B3 |  | ~0.3 | 0.68 | 10.6 |  |
